Test results: the DeepSol protein solubility set

Assay: soluble on expression in E. coli; label from the status in PepcDB or PDB records

Sequence	soluble on expression in E. coli
MENQTTDLENMVGASRAGLTRRGFISAGALCGAAMFLGGNILSRTVLANSVSAASGALLGFESIPTATADSISLPKGYTSSVLISWGQPLQANGPAFDPSGKGTAQAQEVQFGDNNDGMCLFPMPGHKDRALMAINNEYTNYRYLFDHGKEPQSAEEVQKALAAEGVSVIEVQQKQGKWQFVQDSRYNRRVHGNTPIKLSGPAAGHDWLKTDADKGGTHALGTFQNCSSGQTPWGTYLTCEENFTDCFGSSNPEQKFDAGMKRYGVVAASKEINWHPHDPRFDVAKNPNEVNRHGWVVEIDPFDPKSTPVKRTALGRFKHENAAFTQTKGGRAVVYMGDDERGEFIYKFISRDKIDHQNPKANRDLLDHGTLYVAQFDAGDSNPDHPKGKGQWIELTHGKNGLDAAASFNNQAEVLIHARLAASVVKATRMDRPEWIVVSPKDGQVYCTLTNNIKRGDEGQPVGGPNPRAKNQYGQILRWSEEGSNASAMAFDWDLFVVAGNPAVHAGTPQAGSSNINAQNMFNSPDGLSFDEAGRLWIQTDGDSSNKGDFAGMGNNQMLCADPASGEIRRFLVGPVGCEITGISFAPDYKTMFIGIQHPGENGGSTFPEHLPNGKPRSSVMVITREDGGVIGALEHHHHHH	soluble
MGSDKIHHHHHHMPKLASIAPSMESTRPLLQPITVVNRQLQAHCHVMSHSHLWGQFVYASQGVLAVNTPAARYLVTPEQGVWVNSNISHSVTAITEVRLTSFYLDESQCQALPEQSCVLNVAPFLHALIQEARLIPSDFDWQGPRGRLLRLIRDWLSEAKNAPFHLPYSSHPKLMQLFGELQNNPANQDNIATWGQRLGASSRTLSRLIKAETGLSYRHWRQRLNLQLSLSLLAQGHSINHIADSLGYASPSAFIHMFKQQTGDSPARYRK	not soluble
MEEVSSEMEVEVQNRQLSDSSPAQNVKKFGLKNSIQTNFGSDYVFQIVPKIDWTAIAVSLSTNTVKLYSPVTGQYYGECKGHSDTVNQIAFSSDSAASPHVLHSCSSDGTIRSWDTRSFQQVSRIDTGNDQEIFSFSYGGAADNLLAGGCKEQVLLWDWRNSKQVACLEESHMDDVTQVHFVPNKPNKLLSASVDGLICLFNTEGDINDDDHLESVINVGTSIGKIGFLGDGYKKLWCLTHIETLSIWNWEDGSCEVNLEKARELASDSWTQDNVDYFVDCHCPGGEDLWVIGGTCAGTVGYFPVNYKQPGSIGTAEAILGGGHIDVVRSVLQMPGEYGGAAGLFGWTGGEDGRLCCWKSDEDATEINRSWTSSELVVKPPRNRKKNRHSPY	not soluble
MLSSLRRVVPSLPRGSRSLTSQQIFDREKKFGCHNYKPLPVALSKGEGCFVWDVEGKKYFDFLAAYSAVNQGHCHPKLLKVVQEQASTLTLTSRAFYNNVLGEYEEYVTKLFKYDKVLPMNTGVEACESAVKLARRWAYDVKGVKDNEAVVVFAENNFWGRSIAAISASTDPDSFARFGPFVPGFKTVPYNNLKAVEDAIKDKNVAAFMVEPIQGEAGVVLPDPGYLKGVSDLCKKYNVLFITDEVQSGLGRSGKLLAHYHDNVRPDIVVLGKALSGGFYPVSAVLCDDNVMMNIKPGEHGSTYGGNPLACKVAIAALEILQEEKLVENSAVMGDLLMSKLKTLPKDIVSTVRGKGLFCAIVINKKYDAWKVCLKLKENGLLAKNTHGDIIRFAPPLCINKEQVEQAADIIIKTVTDFAKQN	not soluble
MRHLSLLLCCLLAWPARAETLVEIPTRPGVALRFLLLEPPGPPRANLILLAGGEGLLKLSAEGELGAGRGNFLVRTRQGWADMGFRVAVVDAPSDMPRGLLGDFRERAEHAADIAAVSDYLRRGAALPVWLAGTSRGTTSAAAVALNRPDAADGLLLTSSIDAGRGSLAGLPLERLAVPVLMIQHRRDECRASRPGNLGPVLDRLRADAPRELMLLDGGGSEGDPCQPWAWHGYNGIERRVLGLAGAWMLAHGRHLEHHHHHH	not soluble
MRVARLFRFPVKGFPAEEIPEADVRTGRGIRGDRVAAFTNGSLDIPDDSWHRYSAFTVLKNDTDLQKWQVELDLAEAADSSQPAVADPSATVTLTSPQNETTTFRTDDRDTRATSADFLSARIPPQGDFPRALSVADQGMFDSQAAGVSIINPATVAAISQTADGQAALAPGETELDPLRFRGNVLVDGLAPFEEFALIGKIVRLGGVRLAITQAIERCPATTVNPTTTAVDVNVPRVLASACGHLHCGVYGRILESGLVSTGDEIEIEGDAPRELVKTARTPRFMTVLGSQQICNDIVEVSLRDDQGWIREFDEPGTNLRVHLDLGEPFWRTYTITDVSDDIVSIAVRTQGKGSRAVAELAAGQSVLASGPHGTMTANRVFGGTTALVTAGIGITPSLGLMRGAELSGTEKIKLFHVDRDHRTACLWDRLQKRAHSRQIPVETHHRDTASQGRPGHADLVDWLAGCDNVMVCGPADFTRAVLDASAEAGVPAVHQEIFASPNTGMSEAIAQCSPAEVTLENSGTSFLWEPQQGTLLEALEARGLRADNSCRGGSCGTCAVSLAAGSVIYPVEPAARIAADEVLVCSAVPSGPISLGILEHHHHHH	not soluble
MSLRNMSIINSTPVRVIAIVGCDGSGKSTLTASLVNELAARMPTEHIYLGQSSGRIGEWISQLPVIGAPFGRYLRSKAAHVHEKPSTPPGNITALVIYLLSCWRAYKFRKMLCKSQQGFLLITDRYPQVEVPGFRFDGPQLAKTTGGNGWIKMLRQRELKLYQWMASYLPVLLIRLGIDEQTAFARKPDHQLAALQEKIAVTPQLTFNGAKILELDGRHPADEILQASLRAIHAALSEGHHHHHH	soluble
ADMEVIELNKCTSGQSFEVILKPPSFDGVPEFNASLPRRRDPSLEEIQKKLEAAEERRKYQEAELLKHLAEKREHEREVIQKAIEENNNFIKMAKEKLAQKMESNKENREAHLAAMLERLQEKDKHAEEVRKNKELKEEASR	soluble
MRARIYQPARNAMTSGMAKTRKWVLEYAPGSAREVDPLMGWTSSSDTQSQVRLRFDSKEEALDYARAHGIDAVVTEPHKRKPNLRARGYGENFATDRRGPWTH	soluble
MDGKLLWSFNSGDAVRSVAISRDGDYVATGSANNYVYLLDSEGKTLWGKKTGSLINSVTMTPNAYYVAAGGSNYNVYLFDRKGEFSWMHNPGYWVSSVSLSSNGSHLAAGSFDDRIYLFNLTGAKLWDYQVKDDVYAVEIAPDSSFIAAGSWDDSIYALNMSGKELEHHHHHH	not soluble
SRKVFVGGLPPDIDEDEITASFRRFGPLVVDWPHKAESKSYFPPKGYAFLLFQEESSVQALIDACLEEDGKLYLCVSSPTIKDKPVQIRPWNLSDSDFVMD	soluble
MATVSRLRPYATTVFAEMSALATRIGAVNLGQGFPDEDGPPKMLQAAQDAIAGGVNQYPPGPGSAPLRRAIAAQRRRHFGVDYDPETEVLVTVGATEAIAAAVLGLVEPGSEVLLIEPFYDSYSPVVAMAGAHRVTVPLVPDGRGFALDADALRRAVTPRTRALIINSPHNPTGAVLSATELAAIAEIAVAANLVVITDEVYEHLVFDHARHLPLAGFDGMAERTITISSAAKMFNCTGWKIGWACGPAELIAGVRAAKQYLSYVGGAPFQPAVALALDTEDAWVAALRNSLRARRDRLAAGLTEIGFAVHDSYGTYFLCADPRPLGYDDSTEFCAALPEKVGVAAIPMSAFCDPAAGQASQQADVWNHLVRFTFCKRDDTLDEAIRRLSVLAERPATGVPRGLEHHHHHH	soluble
MGSDKIHHHHHHMEKQKEVQKEYEEYQYMLDTETWKKELSQFKLSSSEKISKNPKVSIIIANYNNAPYLKKMMDSLVQQTIGIEQLQVMFIDDCSTDHSLKVIEPYLERYPNIEIYQLLENTGGAHGPRNVGIVNARGEYSVFLDADDWYDLNALKYLSDLLDDSHDDFAVSGLIQSTDGHLMLKSKPYYVDGSFKNRSIQELPAEFYGWLGPQAIMLRTSLIHNNNLHFVNQRVADDVLFFYEAMRFSKTITQGERLTTYLNRDADNESLSKSINRTFMLSWLRALSYINQQFPDDLSKERMLARRLEWLIYDFCIRRNTGYPFSKRRLQDFKVQMDQYLGELNFDPSPYFRSDVRQIIWTFLQTNDIDGLYWFIQCQSIRWVLVNRFGYVSKTERSYYYPRLLKRFPAVRMNAYAEATQREGNTLSLNVYTHQKITGFEIKELKNPFETRQRLAFKKISETSYQVELPEKFSNKESRFTIVFDNYLEIGVKDFSKFFA	not soluble
MSLSPKVAWWCRHPLTFLMEAADDLCYSIVDLEDGFHMGYLPFAAVQDKLQSIADIDLNQYEGSPAETIKRLRAKAINRLVKEVAQLFLDHEPDILAGKFDQSLVELSRFSPQLKEIETMTTNAVFHHPNVVRIKIAGFEVLGDLLTDFLTSVLEKQPRPKGKLLKFMLPPEHQIAPDEDNYSKILKVTDYIAGMTDLQATLLYQQLRGEGHHHHHH	soluble
MHHHHHHSSGRENLYFQGASEALKVVARCRPLSRKEEAAGHEQILTMDVKLGQVTLRNPRAAPGELPKTFTFDAVYDASSKQADLYDETVRPLIDSVLQGFNGTVFAYGQTGTGKTYTMQGTWVEPELRGVIPNAFEHIFTHISRSQNQQYLVRASYLEIYQEEIRDLLSKEPGKRLELKENPETGVYIKDLSSFVTKNVKEIEHVMNLGNQTRAVGSTHMNEVSSRSHAIFIITVECSERGSDGQDHIRVGKLNLVDLAGSERQNKAGPNTAGGAATPSSGGGGGGGGSGGGAGGERPKEASKINLSLSALGNVIAALAGNRSTHIPYRDSKLTRLLQDSLGGNAKTIMVATLGPASHSYDESLSTLRFANRAKNIKNKPRVNEDPKDTLLREF	soluble
MGSDKIHHHHHHVTSLISVKRLNKSFPGVRALHEVQFELMAGEVHALMGENGAGKSTLMKILAGVYTRDSGEILYDGQPVEFLSPRDAQAVGVGIIHQELQLMNHLTVAQNIFIGREPRGRLGLLLDEDRLNAQAAAILARMHVSLDPRAVVGALTVARQQMVEIAKALSFDSRVLIMDEPTSALNDAEIAELFRIIRELKSRGVGIVYISHKMDELKQIADRVTVMRDGEYVATVAARDTSVEAIIGMMVGRTLTDIAPSHSVADQGEIALEVRNLNAGPLVRDVSFALRKGEILGFAGLMGAGRTEVARAVFGADPVESGEIVVNGARATIRTPSDAVAHGIGYLSEDRKRFGLATGMDVESNIVMSNLRKFLSLNFFLRRAQIRRTASHFISLLGIRTPSATQAVRLLSGGNQQKIVIAKWLERDCDVLFFDEPTRGIDVGAKNEIYKLLRSLAGEGKAVVMISSELPEILRMSDRVIVMCEGRITGELSAAEATQERIMHLATRRETLKTAA	not soluble
GPGSMAKWNALSAEIEAARASGDHTKLLAHVHVGLQMLQEIGATNAPIQCESLLCMEASQAHYKMMQYDEALQCAERACESLLRGCKAELQDKAQIAEIEVFMGFVLCKQGGHSAAVEAQELLQKVLHWIDVDAKSAMPMQAVAAVNLRRSVLTGLGLSTTVQATTLASKGETAEAKVLYAKGLDTLIEALNQHIDENDVELVKMTLEAILTSFEGLDDVSQAVATCRKYISWCRRHDDASGVADGESMLTALCARQKIENPLEAEKAKETEEATK	soluble
EKDKYALALKDKGNQFFRNKKYDDAIKYYNWALELKEDPVFYSNLSACYVSVGDLKKVVEMSTKALELKPDYSKVLLRRASANEGLGKFADAMFDLSVLSLNGDFNDASIEPMLERNLNKQAMSKLKEKFGDIDTATATPTELSTQPAKERKDKQENLPSVTSMASFFGIFKPELTFANYDESNEADKELMNGLSNLYKRSPESYDKADESFTKAARLFEEQLDKNNEDEKLKEKLAISLEHTGIFKFLKNDPLGAHEDIKKAIELFPRVNSYIYMALIMADRNDSTEYYNYFDKALKLDSNNSSVYYHRGQMNFILQNYDQAGKDFDKAKELDPENIFPYIQLACLAYRENKFDDCETLFSEAKRKFPEAPEVPNFFAEILTDKNDFDKALKQYDLAIELENKLDGIYVGIAPLVGKATLLTRNPTVENFIEATNLLEKASKLDPRSEQAKIGLAQMKLQQEDIDEAITLFEESADLARTMEEKLQAITFAEAAKVQQRIRSDPVLAKKIQET	soluble
